# Experimental data from US20110053865A1 (published 2011).
# Like-named read-outs stand apart in the source and are kept apart here.
# T1: recombinant human IL-12 (human, UniProt P29459 23-219; P29460 23-328)
# T1 chain 1: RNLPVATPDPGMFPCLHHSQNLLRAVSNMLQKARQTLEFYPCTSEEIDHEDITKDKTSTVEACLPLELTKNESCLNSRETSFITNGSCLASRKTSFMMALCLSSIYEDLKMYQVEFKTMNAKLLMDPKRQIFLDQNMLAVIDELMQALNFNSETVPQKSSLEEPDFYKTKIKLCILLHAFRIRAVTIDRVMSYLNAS
# T1 chain 2: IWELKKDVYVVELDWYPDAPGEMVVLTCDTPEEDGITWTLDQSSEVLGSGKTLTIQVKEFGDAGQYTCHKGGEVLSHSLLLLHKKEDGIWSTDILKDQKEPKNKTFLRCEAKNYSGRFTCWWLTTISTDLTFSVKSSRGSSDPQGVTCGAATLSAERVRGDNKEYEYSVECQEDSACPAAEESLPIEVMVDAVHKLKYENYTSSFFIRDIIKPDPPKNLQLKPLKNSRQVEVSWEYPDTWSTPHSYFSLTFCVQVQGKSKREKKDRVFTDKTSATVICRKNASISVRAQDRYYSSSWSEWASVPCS
# T2: recombinant human IL-23 (p19/p40) (human, UniProt Q9NPF7 20-189; P29460 23-328)
# T2 chain 1: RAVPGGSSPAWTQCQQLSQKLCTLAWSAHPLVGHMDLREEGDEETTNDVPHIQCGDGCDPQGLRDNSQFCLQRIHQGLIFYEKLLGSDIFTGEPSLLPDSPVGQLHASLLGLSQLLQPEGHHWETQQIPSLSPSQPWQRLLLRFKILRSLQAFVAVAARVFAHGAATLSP
# T2 chain 2: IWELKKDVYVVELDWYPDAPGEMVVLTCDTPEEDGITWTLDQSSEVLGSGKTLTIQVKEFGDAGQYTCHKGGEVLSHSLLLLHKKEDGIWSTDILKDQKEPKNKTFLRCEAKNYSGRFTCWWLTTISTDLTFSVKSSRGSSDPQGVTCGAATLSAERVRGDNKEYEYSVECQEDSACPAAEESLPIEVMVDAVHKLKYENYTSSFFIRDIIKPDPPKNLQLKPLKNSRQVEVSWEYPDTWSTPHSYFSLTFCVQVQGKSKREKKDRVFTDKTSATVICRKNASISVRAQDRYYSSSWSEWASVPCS
# Legend:
# recombinant human IL-12 [1] = target: T1, recombinant human IL-12; assay: Biacore
# [2] = target: T2, recombinant human IL-23 (p19/p40); assay: alpha-screen hIL-23/hIL-23R; Fig 7
# recombinant human IL-12 [3] = target: T1, recombinant human IL-12; assay: Biacore
# [4] = target: T2, recombinant human IL-23 (p19/p40); assay: alpha-screen hIL-23/hIL-23R; Fig 6
# [5] = target: T2, recombinant human IL-23 (p19/p40); assay: Biacore; eBiosc hIL23
binder,measurement,setting,value
P23IL3G10 (VHH) VHH: EVQLVESGGGVVQAGESLRLSCAASGYNVKDYEMGWFRQAPGMEREFAAAISWRGSSTYYADSVKGRFTISRDNAKNTVYLQMSSLKPEDTAVYYCAAGRLYPSSRSRDYDYWGQGTQVTVSS,koff,recombinant human IL-12 [1],0.00244 s⁻¹
119A3-119G7 (antibody) EVQLVESGGGLVQAGGSLRLSCAASGRIFSLPASGNIFNLLTIAWHRQAPGMQRELVATINSGSRTNYADSVKGRFTISRDNAQKTVYLQMNNLKPEDTAVYYCQTSGSGSPNFWGQGTQVTVSSGGGGSGGGGSGGGGSGGGGSGGGGSGGGGSGGGGSEVQLVESGGGLVQAGGSLTLSCAVSGLTFNNYAMGWFRQVPGKEREFVAAISRSGLRTFYSDSVKGRFTISRDSAKSTVYVQMNNLKPEDTAVYFCAADRRTYYSEGPSLTDTLRYDYWGQGTQVTVSS,IC50,[2],0.132 nM
P23IL 3F11 (VHH) VHH: EVQLVESGGGLVQAGGSLRLSCAASGSIFSINAMGWFRQAPGKERQFVAAINWSTGSTYYSDSVKGRFTISRDNAKNTVYLQMNSLKPEDTAVYFCASGYLFPSSRGSQYDYWGQGTQVTVSS,koff,recombinant human IL-12 [1],0.00134 s⁻¹
P23IL81E10 (VHH) VHH: EVQLVESGGGLVQAGGSLRLSCVASGRTFNTYGMGWFRQAPGKEREFVAANNWSGGATSYADSVKGRFTISRDNAKNTVFLQMNTLKPEDTAVYYCAAADRGGGWLVVRENDYDYWGQGTQVTVSS,koff,recombinant human IL-12 [1],0.00266 s⁻¹
same,koff,recombinant human IL-12 [3],0.00266 s⁻¹
P23IL3B8 (VHH) VHH: EVQLVESGGGLVQPGGSLRLSCAASGFTFSSSVMFWLRQAPGKGLEWLSTIKPTGSTIYPGSGKGRFTISRDNAKNTLYLQINNLKPEDTALYYCARDIGGTVRGQGTQVTVSS,koff,recombinant human IL-12 [1],0.00243 s⁻¹
121A2-119G7 (antibody) EVQLVESGGGLVQAGGSLRLSCAASGSIFNFNYMGWFRQAPGKEREFVAAIRWSGSSTYYADSVKGRFTISRDDAKNTVALQMNSLKPEDTAIYYCALRKGIPYSTSDRVIKGVNDYDYWGQGTQVTVSSGGGGSGGGGSGGGGSGGGGSGGGGSGGGGSGGGGSEVQLVESGGGLVQAGGSLTLSCAVSGLTFNNYAMGWFRQVPGKEREFVAAISRSGLRTFYSDSVKGRFTISRDSAKSTVYVQMNNLKPEDTAVYFCAADRRTYYSEGPSLTDTLRYDYWGQGTQVTVSS,IC50,[4],0.131 nM
P23IL-121A2 (VHH) VHH: EVQLVESGGGLVQAGGSLRLSCAASGSIFNFNYMGWFRQAPGKEREFVAAIRWSGSSTYYADSVKGRFTISRDDAKNTVALQMNSLKPEDTAIYYCALRKGIPYSTSDRVIKGVNDYDYWGQGTQVTVSS,IC50,[4],0.299 nM
same,IC50,[2],0.27 nM
P23IL119G7 (VHH) VHH: EVQLVESGGGLVQAGGSLTLSCAVSGLTFNNYAMGWFRQVPGKEREFVAAISRSGLRTFYSDSVKGRFTISRDSAKSTVYVQMNNLKPEDTAVYFCAADRRTYYSEGPSLTDTLRYDYWGQGTQVTVSS,koff,[5],0.000479 s⁻¹
P23IL119A3 (VHH) VHH: EVQLVESGGGLVQAGGSLRLSCAASGRIFSLPASGNIFNLLTIAWHRQAPGMQRELVATINSGSRTNYADSVKGRFTISRDNAQKTVYLQMNNLKPEDTAVYYCQTSGSGSPNFWGQGTQVTVSS,IC50,[2],0.67 nM
P23IL81G2 (VHH) VHH: EVQLVESGGGLVQPGGSLRLSCIASGLPFSTKSMGWFRQAPGKEREFVARISPGGTSRYYGDFVKGRFAISRDNAKNTTWLQMNSLKAEDTAVYYCASGERSTYIGSNYYRTNEYDYWGTGTQVTVSS,koff,[5],0.000257 s⁻¹
P23IL3C1 (VHH) VHH: EVQLVESGGGSVQAGGSLRLSCKVSGIMFSDKGMGWFRQAPGKERETVAATNWSGGSTYYADSVKGRFTISRDNYKNTLHLQMASLKPEDTGIYYCAAAGDSWNSRRIEDYDYWGQGTPVTVSS,koff,recombinant human IL-12 [1],0.000279 s⁻¹
P23IL81A12 (VHH) VHH: EVQLVESGGGLVQAGGSLRLSCAASGRTLSSYAMGWFRQAPGKEREFVARISQGGTAIYYADSVKGRFTISRDNAKNTVYLQMNSLKPEDTAVYYCAKDPSPYYRGSAYLLSGSYDSWGQGTQVTVSS,koff,[5],0.000113 s⁻¹
